{"source": "paper PMC4164947", "about": "(The Journal of Cell Biology, 2014)", "key": {"[1]": {"biological_target": "C. elegans Vps4^E219Q (as used alone in light scattering and EM) (C. elegans)", "assay": "SEC-MALS"}, "[2]": {"biological_target": "C. elegans Vps32 (full length, wild type) (C. elegans)", "assay": "cryo-EM imaging"}, "[3]": {"biological_target": "C. elegans Vps32^E94K (C. elegans)", "assay": "SEC"}, "[4]": {"biological_target": "the molecule itself", "assay": "negative staining EM"}}}
{"molecule": "C. elegans Vps4^E219Q (as used alone in light scattering and EM) (enzyme)", "values": [{"measurement": "stoichiometry N", "setting": "[1]", "result": 6}]}
{"molecule": "C. elegans Vps32 (full length, wild type) (natural protein)", "values": [{"measurement": "stoichiometry N", "setting": "[2]", "result": 800}]}
{"molecule": "C. elegans Vps32^E94K (natural protein)", "values": [{"measurement": "percent of the total protein in oligomers", "setting": "[3]", "result": "< 5", "unit": "%"}]}
{"molecule": "yeast Snf7^R52E (natural protein) MWSSLFGWTSSNAKNKESPTKAIVRLREHINLLSKKQSHLRTQITNQENEAEIFLTKGNKVMAKNALKKKKTIEQLLSKVEGTMESMEQQLFSIESANLNLETMRAMQEGAKAMKTIHSGLDIDKVDETMDEIREQVELGDEISDAISRPLITGANEVDEDELDEELDMLAQENANQETSKIVNNNVNAAPISENKVSLPSVPSNKIKQSENSVKDGEEEEDEEDEDEKALRELQAEMGL", "values": [{"measurement": "binding result", "setting": "[4]", "result": "binds"}]}
